Test results taken from patent publication US11427805B2, “Methods of producing human foregut endoderm cells expressing PDX1 from human definitive endoderm” (ViaCyte, Inc., priority 2005, dated 2022).

Assays:
Assay type in all cases: cell-based, human
definitive endoderm = experiment: Dorsal / ventral / PDX1-negative foregut endoderm differentiation from definitive endoderm (marker gene expression); conditions: for specification of definitive endoderm into foregut endoderm: FGF10 5-500 ng/ml, KAAD-cyclopamine 0.1-2 μM
Description: Definitive endoderm was produced from undifferentiated hESCs using a three or five day protocol in which activin A was provided to the culture medium at a concentration of 100 ng/ml each day. For both dorsal and ventral differentiation, the medium composition for the first five days was as follows: Day 1—RPMI+0% fetal bovine serum (FBS), Day 2—RPMI+0.2% PBS, Day 3—RPMI+2.0% FBS, Day 4—RPMI+2.0% FBS and Day 5—RPMI+2.0% FBS. For the ventral differentiation, definitive endoderm was produced for 3 days in activin A at 100 ng/ml and then exposed to BMP4 at 3 ng/ml and FGF10 at 50 ng/ml. […] For the dorsal differentiation procedure, definitive endoderm was produced for 5 days in activin A at 100 ng/ml and then exposed to retinoic acid (RA) at 2 μM and activin A at 25 ng/ml in CMRL medium containing B27 supplement (1:200).
Four separate conditions were used to treat hESCs that result in varying proportions of differentiation to definitive endoderm. All four conditions utilized RPMI supplemented with 0% FBS on the first day, 0.2% FBS on second day, and 2% FBS on days 3 and 4. The four conditions were as follows: (a) BMP4 at 100 ng/mL with SU5402 at 5 μM; (b) no exogenous growth factors; (c) activin A at 15 ng/mL; and (d) activin A at 100 ng/ml. […] All cultures were then incubated for 2 days with BMP4 at 3 ng/mL, FGF10 at 50 ng/ml and KAAD-cyclopamine at 0.5 μM in a base medium of 2% FBS in RPMI followed by 6 days with BMP4 at 3 ng/mL, FGF10 at 50 ng/ml and KAAD-cyclopamine at 0.5 μM in a base medium composed of CMRL with 1:200 dilution of B27 extract.
Definitive endoderm was produced by exposing undifferentiated hESCs to activin at 100 ng/mL in RPMI base medium supplemented with 0%, 0.2%, and 2% FBS on days 1 through 3, respectively. After 3 days of activin A treatment, the cultures were switched to a base medium composed of RPMI containing 2% FBS and maintained under one of the following conditions: (a) BMP4 at 3 ng/ml with FGF10 at 50 ng/ml and KAAD-cyclopamine at 0.5 μM; (b) FGF10 at 50 ng/ml and KAAD-cyclopamine at 0.5 μM; or (c-e) no exogenous factors. After two days, the base medium was changed to CMRL plus B27 supplement (1:200) and cells were maintained according to conditions (a-c) above. Alternatively, cells were maintained with no exogenous factors in RPMI with B27 supplement (1:200) (condition (d)) or RPMI with 2% FBS (condition (e)). The same factor treatment conditions were maintained for 8 more days of differentiation.
Human embryonic stem cells were differentiated for 7 days via a 2-step protocol to achieve PDX1 cells. The first step comprised 5 days differentiation in activin A (100 ng/ml) to robustly produce DE (D'Amour, K., et al., Nature Biotechnology 23, 1534-1541, (2005)). […]

PDX1 gene expression = experiment: Q-PCR of PDX1 gene expression in hESC-derived definitive endoderm cultures; conditions: for PDX1 induction over RA alone: added to 1 μM RA on day four, ninety six hours (FIG. 37A)
Description: (§1) Human embryonic stem cells were cultured with or without activins for four days. On day four, 1 μM RA and 50 ng/ml FGF-10 were added to the cell culture. Forty-eight hours after the RA/FGF-10 addition, the expression of the PDX1 marker gene and other marker genes not specific to foregut endoderm were quantitated by Q-PCR.
(§2) As in the previous Example, hESCs were cultured with or without activins for four days. On day four, the cells were treated with one of the following: 1 μM RA alone; 1 μM RA in combination with either FGF-4 or FGF-10; or 1 μM RA in combination with both FGF-4 and FGF-10. The expression of PDX1, SOX7 and NFM were quantitated by Q-PCR ninety six hours after RA or RA/FGF.
Human embryonic stem cells were cultured with or without activins for four days. On day four, FGF-10 at 50 ng/ml was added to the culture in combination with RA at 0.04 μM, 0.2 μM or 1.0 μM. The expression of the PDX1 marker gene as well as other markers not specific for foregut endoderm were quantitated by Q-PCR.
Human embryonic stem cells were induced to differentiate to definitive endoderm by treatment of undifferentiated hES cells grown on mouse embryonic fibroblast feeders with high dose activin A (100-200 ng/ml in 0.5-2% FBS/DMEM/F12) for 4 days. The no activin A control received 0.5-2% FBS/DMEM/F12 with no added activin A. At four days, cultures received either no activin A in 2% FBS (none), and in 2% serum replacement (SR), or 50 ng/ml activin A together with 2 μM RA and 50 ng/ml FGF-10 in 2% FBS/DMEM/F12 (none, +FBS, +B27) and similarly in 2% Serum replacement (SR). B27 supplement, (Gibco/BRL), was added as a 1/50 dilution directly into 2% FBS/DMEM/F12 (+B27). Duplicate cell samples where taken for each point, and total RNA was isolated and subjected to Q-PCR as previously described.
Human embryonic stem cells were induced to differentiate to definitive endoderm by treatment of undifferentiated hESCs grown on mouse embryonic fibroblast feeders with high dose activin A (50 ng/ml) in low serum/RPMI for 6 days. The FBS dose was 0% on day one, 0.2% on day two and 2% on days 3-6. The negative control for definitive endoderm production (NF) received 2% FBS/RPMI with no added activin A. In order to induce PDX1 expression, each of the cultures received retinoic acid at 2 μM in 2% FBS/RPMI on day 6. The cultures treated with activin A on days one through five were provided with different dosing combinations of activin A and activin B or remained in activin A alone at 50 ng/ml. The no activin A control culture (NF) was provided neither activin A nor activin B. This RA/activin treatment was carried out for 3 days at which time PDX1 gene expression was measured by Q-PCR from duplicate cell samples.
The definitive endoderm cultures generated by 5 days of activin A treatment were then induced to differentiate to PDX1 expressing endoderm by the addition of RA in 2% FBS/RPMI containing activin A at 25 ng/ml for four days. The RA was 2 μM for the first two days of addition, 1 μM on the third day and 0.5 μM on the fourth day. This base medium for PDX1 induction was provided fresh (2A25R) or after conditioning for 24 hours by one of four different cell populations. Conditioned media (CM) were generated from either mouse embryonic fibroblasts (MEFCM) or from hESCs that were first differentiated for 5 days by one of three conditions; i) 3% FBS/RPMI (CM2), or ii) activin A (CM3) or iii) bone morphogenic protein 4 (BMP4) (CM4). […]

[1] = test system: definitive endoderm cells; experiment: Maintenance and expansion of definitive endoderm cells in culture; conditions: in the presence of activin
Excerpt: Definitive endoderm cells produced by methods described herein have been maintained and expanded in culture in the presence of activin for greater than 50 days without appreciable differentiation. In such cases, SOX17, CXCR4, MIXL1, GATA4, HNF3β expression is maintained over the culture period. Additionally, TM, SPARC, OCT4, AFP, SOX7, ZIC1 and BRACH were not detected in these cultures. It is likely that such cells can be maintained and expanded in culture for substantially longer than 50 days without appreciable differentiation.

SOX17 gene expression = experiment: Q-PCR of SOX17 gene expression in differentiating hESCs; conditions: added to activin A and activin B treated cultures (FIG. 23)
Description: In the following experiments, real-time quantitative RT-PCR (Q-PCR) was the primary assay used for screening the effects of various treatments on hESC differentiation. In particular, real-time measurements of gene expression were analyzed for multiple marker genes at multiple time points by Q-PCR. Marker genes characteristic of the desired as well as undesired cell types were evaluated to gain a better understanding of the overall dynamics of the cellular populations. The strength of Q-PCR analysis includes its extreme sensitivity and relative ease of developing the necessary markers, as the genome sequence is readily available. Furthermore, the extremely high sensitivity of Q-PCR permits detection of gene expression from a relatively small number of cells within a much larger population. In addition, the ability to detect very low levels of gene expression provides indications for “differentiation bias” within the population. The bias towards a particular differentiation pathway, prior to the overt differentiation of those cellular phenotypes, is unrecognizable using immunocytochemical techniques. […] Additionally, Q-PCR provides a mechanism by which to evaluate the success of a differentiation protocol in a quantitative format at semi-high throughput scales of analysis.
The approach taken here was to perform relative quantitation using SYBR Green chemistry on a Rotor Gene 3000 instrument (Corbett Research) and a two-step RT-PCR format. Such an approach allowed for the banking of cDNA samples for analysis of additional marker genes in the future, thus avoiding variability in the reverse transcription efficiency between samples.
To generate PCR template, total RNA was isolated using RNeasy (Qiagen) and quantitated using RiboGreen (Molecular Probes). Reverse transcription from 350-500 ng of total RNA was carried out using the iScript reverse transcriptase kit (BioRad), which contains a mix of oligo-dT and random primers. Each 20 μL reaction was subsequently diluted up to 100 μL total volume and 3 μL was used in each 10 μL Q-PCR reaction containing 400 nM forward and reverse primers and 5 μL 2×SYBR Green master mix (Qiagen). Two step cycling parameters were used employing a 5 second denature at 85-94° C. (specifically selected according to the melting temp of the amplicon for each primer set) followed by a 45 second anneal/extend at 60° C. Fluorescence data was collected during the last 15 seconds of each extension phase. A three point, 10-fold dilution series was used to generate the standard curve for each run and cycle thresholds (Ct's) were converted to quantitative values based on this standard curve. The quantitated values for each sample were normalized to housekeeping gene performance and then average and standard deviations were calculated for triplicate samples. At the conclusion of PCR cycling, a melt curve analysis was performed to ascertain the specificity of the reaction. A single specific product was indicated by a single peak at the Tm appropriate for that PCR amplicon.
A first step in establishing the Q-PCR methodology was validation of appropriate housekeeping genes (HGs) in the experimental system. […] We measured the expression levels of Cyclophilin G, hypoxanthine phosphoribosyltransferase 1 (HPRT), beta-2-microglobulin, hydroxymethylbiane synthase (HMBS), TATA-binding protein (TBP), and glucoronidase beta (GUS) in differentiating hESCs. […] We routinely used both Cyclophilin G and GUS to calculate a normalization factor for all samples. The use of multiple HGs simultaneously reduces the variability inherent to the normalization process and increases the reliability of the relative gene expression values.
We were the first to analyze and describe the effect of TGFβ family growth factors, such as Nodal/activin/BMP, for use in creating definitive endoderm cells from embryonic stem cells in in vitro cell cultures. […]

[2] = test system: definitive endoderm cells; experiment: Q-PCR of marker genes other than PDX1 in hESC-derived definitive endoderm cultures; conditions: FIG. 40B
Description: as §1, §2
Human embryonic stem cells were cultured with or without activins for four days. […] The expression of the PDX1 marker gene as well as other markers not specific for foregut endoderm were quantitated by Q-PCR.
Human embryonic stem cells were induced to differentiate to definitive endoderm by treatment of undifferentiated hESCs grown on mouse embryonic fibroblast feeders with high dose activin A (50 ng/ml) in low serum/RPMI for 6 days. […] The no activin A control culture (NF) was provided neither activin A nor activin B. This RA/activin treatment was carried out for 3 days at which time PDX1 gene expression was measured by Q-PCR from duplicate cell samples. […]

CC1=C2C[C@H]3[C@@H](CC=C4CC(=O)CC[C@@]43C)[C@@H]2CC[C@]12O[C@@H]1C[C@H](C)CN(CCNC(=O)CCCCCNC(=O)CCc3ccccc3)[C@H]1[C@H]2C [KAAD-cyclopamine, reference compound]
specification of definitive endoderm into foregut endoderm (definitive endoderm): further specified definitive endoderm cells into the foregut endoderm domain

CC1=C(/C=C/C(C)=C/C=C/C(C)=C/C(=O)O)C(C)(C)CCC1 [retinoic acid, reference compound]
increase in PDX1 gene expression (PDX1 gene expression; activin for four days followed by 1 μM RA, ninety six hours): 60 fold

activin
time definitive endoderm cells were maintained and expanded in culture without appreciable differentiation [1]: greater than 50 days | PDX1 expression in activin treated cell cultures relative to cultures that received no activin prior to RA application (PDX1 gene expression; four days with or without activins, then 1 μM RA and 50 ng/ml FGF-10 for 48 hours): 160 fold

B1: FGF-4 (protein, UniProt P08620 31-206, looked up)
Fibroblast growth factor 4: APTAPNGTLEAELERRWESLVALSLARLPVAAQPKEAAVQSGAGDYLLGIKRLRRLYCNVGIGFHLQALPDGRIGGAHADTRDSLLELSPVERGVVSIFGVASRFFVAMSSKGKLYGSPFFTDECTFKEILLPNNYNAYESYKYPGMFIALSKNGKTKKGNRVSPTMKVTHFLPRL
notes: fibroblast growth factor
PDX1 induction over RA alone (PDX1 gene expression): approximately 3 fold

B2: FGF-10 (protein, UniProt O15520 38-208, looked up)
Fibroblast growth factor 10: QALGQDMVSPEATNSSSSSFSSPSSAGRHVRSYNHLQGDVRWRKLFSFTKYFLKIEKNGKVSGTKKENCPYSILEITSVEIGVVAVKAINSNYYLAMNKKGKLYGSKEFNNDCKLKERIEENGYNTYASFNWQHNGRQMYVALNGKGAPRRGQKTRRKNTSAHFLPMVVHS
notes: fibroblast growth factor
PDX1 induction over RA alone (PDX1 gene expression): 60 fold | specification of definitive endoderm into foregut endoderm (definitive endoderm): beneficial

B3: BMP4 (protein, UniProt P12644 293-408, looked up)
Bone morphogenetic protein 4: SPKHHSQRARKKNKNCRRHSLYVDFSDVGWNDWIVAPPGYQAFYCHGDCPFPLADHLNSTNHAIVQTLVNSVNSSIPKACCVPTELSAISMLYLDEYDKVVLKNYQEMVVEGCGCR
notes: bone morphogenic protein 4, member of the TGFβ family
production of PDX1-positive ventral foregut endoderm (definitive endoderm; after 3 days activin 100 ng/mL, FGF10 50 ng/ml, KAAD-cyclopamine 0.5 μM, BMP4 3 ng/ml (FIGS. 52A, 52B)): not needed

B4: Wnt3a (protein, UniProt P56704 19-352, looked up)
Protein Wnt-3a: SYPIWWSLAVGPQYSSLGSQPILCASIPGLVPKQLRFCRNYVEIMPSVAEGIKIGIQECQHQFRGRRWNCTTVHDSLAIFGPVLDKATRESAFVHAIASAGVAFAVTRSCAEGTAAICGCSSRHQGSPGKGWKWGGCSEDIEFGGMVSREFADARENRPDARSAMNRHNNEAGRQAIASHMHLKCKCHGLSGSCEVKTCWWSQPDFRAIGDFLKDKYDSASEMVVEKHRESRGWVETLRPRYTYFKVPTERDLVYYEASPNFCEPNPETGSFGTRDRTCNVSSHGIDGCDLLCCGRGHNARAERRREKCRCVFHWCCYVSCQECTRVYDVHTCK
notes: Wnt family growth factor
SOX17 expression relative to activin A and activin B alone (SOX17 gene expression): increases SOX17 expression

B5: activin B (protein, UniProt P09529 293-407, looked up)
Inhibin beta B chain: GLECDGRTNLCCRQQFFIDFRLIGWNDWIIAPTGYYGNYCEGSCPAYLAGVPGSASSFHTAVVNQYRMRGLNPGTVNSCCIPTKLSTMSMLYFDDEYNIVKRDVPNMIVEECGCA
modifications: Inhibin beta B chain
increase in PDX1 expression over the culture that received only activin A at 50 ng/ml (PDX1 gene expression; activin B 10-50 ng/ml with 25 or 50 ng/ml activin A and 2 μM RA, 3 days (FIG. 40A)): at least 2 fold | HNF6 expression [2]: without increase in HNF6 expression
